CN116836273A

How the values were obtained:
[1] = biological target: 血清淀粉样蛋白A (Serum amyloid A, SAA) (UniProt P0DJI8); experiment: indirect ELISA, SAA coated at 2 ug/ml, antibody at 7.5 ng/ml
[2] = biological target: 血清淀粉样蛋白A (Serum amyloid A, SAA) (UniProt P0DJI8); experiment: BLI, antibody captured on AMC sensor, SAA in solution
[3] = biological target: 血清淀粉样蛋白A (Serum amyloid A, SAA) (UniProt P0DJI8); experiment: indirect ELISA, SAA coated at 2 ug/ml, antibody at 30 ng/ml
[4] = biological target: 血清淀粉样蛋白A (Serum amyloid A, SAA) (UniProt P0DJI8); experiment: indirect ELISA, SAA coated at 2 ug/ml, antibody at 60 ng/ml
[5] = biological target: 血清淀粉样蛋白A (Serum amyloid A, SAA) (UniProt P0DJI8); experiment: indirect ELISA, SAA coated at 2 ug/ml, antibody at 15 ng/ml
[6] = biological target: 血清淀粉样蛋白A (Serum amyloid A, SAA) (UniProt P0DJI8); experiment: indirect ELISA, SAA coated at 2 ug/ml, antibody at 3.75 ng/ml
[7] = biological target: 血清淀粉样蛋白A (Serum amyloid A, SAA) (UniProt P0DJI8); experiment: indirect ELISA, SAA coated at 2 ug/ml, antibody at 0 ng/ml (blank)

Sequence of UniProt P0DJI8 (P0DJI8 19-122 limits assumed): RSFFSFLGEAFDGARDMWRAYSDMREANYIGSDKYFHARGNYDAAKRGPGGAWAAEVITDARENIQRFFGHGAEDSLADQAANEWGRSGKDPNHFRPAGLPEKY

## 对照 (control antibody)
[1]
  OD (OD450 (ref. 630 nm)): 0.562
[2]
  Kd: 7.98 nM
  koff: 9.82e-05 s⁻¹
  kon: 12300 M⁻¹ s⁻¹
[3]
  OD (OD450 (ref. 630 nm)): 1.63
[4]
  OD (OD450 (ref. 630 nm)): 1.79
[5]
  OD (OD450 (ref. 630 nm)): 0.912
[6]
  OD (OD450 (ref. 630 nm)): 0.316
[7]
  OD (OD450 (ref. 630 nm)): 0.009
